This is an account of results in patent publication US20210139581A1 (Alector, published 2021).

Experiment [1] addresses T1, human CD33 (human, UniProt P20138 18-259, limits assumed).
T1 construct: Human CD33 immobilized on the BLI sensor tip or the BIAcore C1 chip; also called Siglec-3
Briefly: BLI (ForteBio), Fab 100 nM on immobilized CD33. For orientation: In BLI a coated tip is dipped into the sample, and binding shifts an interference pattern.

For experiment [2], the target named is human CD33 on primary human monocyte-derived dendritic cells (human, UniProt P20138 18-364). The experiment in a line: cell-based or functional assay.
Chain of human CD33 on primary human monocyte-derived dendritic cells (P20138 18-364): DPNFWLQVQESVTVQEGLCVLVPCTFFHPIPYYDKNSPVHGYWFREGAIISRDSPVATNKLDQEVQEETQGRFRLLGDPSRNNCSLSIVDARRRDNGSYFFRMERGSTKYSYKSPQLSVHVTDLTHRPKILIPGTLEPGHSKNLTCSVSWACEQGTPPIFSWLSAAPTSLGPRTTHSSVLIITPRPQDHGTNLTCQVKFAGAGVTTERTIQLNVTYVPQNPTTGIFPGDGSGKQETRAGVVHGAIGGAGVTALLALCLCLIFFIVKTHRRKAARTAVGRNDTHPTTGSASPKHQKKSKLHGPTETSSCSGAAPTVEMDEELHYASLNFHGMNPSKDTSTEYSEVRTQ
The target in experiment [3] is T1, human CD33. Briefly: BLI (ForteBio), Fab 100 nM on immobilized CD33; kon/koff columns printed 3 rows too low, assigned by koff/kon = printed KD of AB-63.7. Here is the method:
(§1) The affinities (KD) of the humanized antibodies for human CD33 were measured for each antibody by BioLayer Interferometry in a ForteBio assay according to standard techniques (Estep et al. (2013) MAbs 5(2): 270-8). […] The assay was carried out at room temperature.
(§2) The affinities of AB-H14 and its affinity-matured variants (Table 15) and AB-H63 and its affinity-matured variants (Table 16), for human CD33 were measured by Fortebio assay according to the method described in Example 1 above.

The target in experiment [4] is T1, human CD33. Briefly: BLI (ForteBio), Fab 100 nM on immobilized CD33; kon/koff columns printed 3 rows too low, assigned by koff/kon = printed KD of AB-63.10. Here is the method:
as §1, §2

Experiment [5] concerns the target T1, human CD33. The experiment in a line: BLI (ForteBio), Fab 100 nM on immobilized CD33; kon/koff columns printed 3 rows too low, assigned by koff/kon = printed KD of AB-63.11. Here is the method: as §1, §2
The target of experiment [6] is T1, human CD33. The experiment in a line: BLI (ForteBio), Fab 100 nM on immobilized CD33; kon/koff columns printed 3 rows too low, assigned by koff/kon = printed KD of AB-63.8. Here is the method: as §1, §2
In experiment [7] the target is T1, human CD33. The experiment in a line: BLI (ForteBio), Fab 100 nM on immobilized CD33; kon/koff columns printed 3 rows too low, assigned by koff/kon = printed KD of AB-63.12. Here is the method:
as §1, §2

The target in experiment [8] is T1, human CD33. The experiment in a line: BLI (ForteBio), Fab 100 nM on immobilized CD33; kon/koff columns printed 3 rows too low, assigned by koff/kon = printed KD of AB-63.9. Here is the method:
as §1, §2

Experiment [9] deals with T1, human CD33. The experiment in a line: BLI (ForteBio), Fab 100 nM on immobilized CD33; kon/koff columns printed 3 rows too low, assigned by koff/kon = printed KD of AB-63.14. Here is the method: as §1, §2
For experiment [10], the target named is T1, human CD33. The experiment in a line: BLI (ForteBio), Fab 100 nM on immobilized CD33; kon/koff columns printed 3 rows too low, assigned by koff/kon = printed KD of AB-63.13. Here is the method:
as §1, §2

Experiment [11] has as its target T1, human CD33. Briefly: BLI (ForteBio), Fab 100 nM on immobilized CD33; kon/koff columns printed 3 rows too low, assigned by koff/kon = printed KD of AB-63.15. Here is the method: as §1, §2

T1 sequence (P20138 18-259 limits assumed): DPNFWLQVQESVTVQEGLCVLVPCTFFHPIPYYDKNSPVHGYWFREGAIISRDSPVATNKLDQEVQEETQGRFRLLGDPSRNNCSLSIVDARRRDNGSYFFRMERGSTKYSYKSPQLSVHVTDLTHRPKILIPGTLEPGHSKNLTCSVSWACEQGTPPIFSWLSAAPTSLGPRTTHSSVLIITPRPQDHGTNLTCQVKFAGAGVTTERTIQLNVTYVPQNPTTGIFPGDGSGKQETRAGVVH

B1: AB-63.7 (antibody, V domains shown)
VH: QVQLVQSGAEVKKPGASVKVSCKASGYTFTDYNLHWVRQAPGQGLEWIGFIYPSNGITGYAQKFQGRVTMTVDTSTSTVYMELSSLRSEDTAVYYCARSTVDYFDYWGQGTLVTVSS
VL: DIVLTQSPDSLAVSLGERATINCRASQDVSTSTYSYMHWYQQKPGQPPKLLIKYAFNLESGVPDRFSGSGSGTDFTLTISSLQAEDVAVYYCQHSWEIPLEFGQGTKLEIK
Consider B1, for which, in the experiment with human CD33 [1], the “Fold affinity improvement over parental Ab (AB-H63)” value (“Fold affinity improvement” below) amounted to 2.97 fold and the Kd was determined as 0.917 nM. Moreover, in experiment [2], the “Maximal Downregulation (% CD33 remaining)” value was 18.4% and the “Receptor downregulation (EC50)” value was determined as 0.0416 nM. Moreover, in the experiment with human CD33 [3], the koff worked out at 0.000546 s⁻¹ and the on-rate constant (kon) came out at 596000 M⁻¹ s⁻¹.

B2: AB-63.10 (antibody, V domains shown)
VH: QVQLVQSGAEVKKPGASVKVSCKASGYTETDYNLHWVRQAPGQGLEWIGFIYPSNGITGYAQKFQGRVTMTVDTSTSTVYMELSSLRSEDTAVYYCARSDVDYFDYWGQGTLVTVSS
VL: DIVLTQSPDSLAVSLGERATINCRASQDVSTSTYSYMHWYQQKPGQPPKLLIKYASNLESGVPDRFSGSGSGTDFTLTISSLQAEDVAVYYCQHSWELPLTFGQGTKLEIK
As for B2, in the experiment with human CD33 [1], the “Fold affinity improvement” value was 5.84 fold and binding was put at a Kd of 0.466 nM. In [2], the “Maximal Downregulation (% CD33 remaining)” value came out at 21.2% and the “Receptor downregulation (EC50)” value is 0.0418 nM. Besides, in the experiment with human CD33 [4], the koff came to 0.000336 s⁻¹ and the kon came out at 721000 M⁻¹ s⁻¹.

B3: AB-63.11 (antibody, V domains shown)
VH: QVQLVQSGAEVKKPGASVKVSCKASGYTFTDYNFHWVRQAPGQGLEWIGFIYPANGITGYAQKDQGRVTMTVDTSTSTVYMELSSLRSEDTAVYYCARSDVDYFDYWGQGTLVTVSS
VL: DIVLTQSPDSLAVSLGERATINCRASQDVSTSTYSYMHWYQQKPGQPPKLLIKYASNLESGVPDRFSGSGSGTDFTLTISSLQAEDVAVYYCQHSWEIPLTFGQGTKLEIK
On to B3, for which, in the experiment with human CD33 [1], the “Fold affinity improvement” value came out at 7.09 fold and binding was characterised by a dissociation constant (Kd) of 0.384 nM. Moreover, in experiment [2], the “Maximal Downregulation (% CD33 remaining)” value is 23% and the “Receptor downregulation (EC50)” value came out at 0.044 nM. In the experiment with human CD33 [5], the koff amounted to 0.000322 s⁻¹ and the on-rate constant (kon) was determined as 839000 M⁻¹ s⁻¹.

B4: AB-63.8 (antibody, V domains shown)
VH: QVQLVQSGAEVKKPGSSVKVSCKASGVTFTDYNYHWVRQAPGQGLEWIGFIYPSNGITGYAQKFQDRVTMTVDTSTSTVYMELSSLRSEDTAVYYCARSTVDYFDYWGQGTLVTVSS
VL: DIVLTQSPDSLAVSLGERATINCRASQDVSTSTYSYMHWYQQKPGQPPKLLIKYASNLESGVPDRFSGSGSGTDFTLTISSLQAEDVAVYYCQHSWEIPLTFGQGTKLEIK
Take B4: in the experiment with human CD33 [1], the “Fold affinity improvement” value came to 12.4 fold and the Kd stood at 0.219 nM. In experiment [2], the “Maximal Downregulation (% CD33 remaining)” value was 22% and the “Receptor downregulation (EC50)” value was 0.0167 nM. In the experiment with human CD33 [6], this molecule displayed a koff of 0.0002 s⁻¹ and an association rate constant (kon) of 913000 M⁻¹ s⁻¹.

B5: AB-63.12 (antibody, V domains shown)
VH: QVQLVQSGAEVKKPGASVKVSCKASGYTFTDYNFHWVRQAPGQGLEWIGFIYPSNGITGYAQKFTGRVTMTVDTSTSTVYMELSSLRSEDTAVYYCARSTVDYFDDWGQGTLVTVSS
VL: DIVLTQSPDSLAVSLGERATINCRASQDVSTSTYSYMHWYQQKPGQPPKLLIKYASNVESGVPDRFSGSGSGTDFTLTISSLQAEDVAVYYCQHSWAIPLTFGQGTKLEIK
With B5, in the experiment with human CD33 [1], the “Fold affinity improvement” value is 9.84 fold and binding was put at a Kd of 0.277 nM. In experiment [2], the “Maximal Downregulation (% CD33 remaining)” value was 27.5% and the “Receptor downregulation (EC50)” value was 0.035 nM. Also, in the experiment with human CD33 [7], the koff stood at 0.0002 s⁻¹ and the on-rate (kon) is 723000 M⁻¹ s⁻¹.

B6: AB-63.9 (antibody, V domains shown)
VH: QVQLVQSGAEVKKPGASVKVSCKASGYAFTDYNLHWVRQAPGQGLEWIGFIYPSNGITGYAQKFQGRVTMTVDTSTSTVYMELSSLRSEDTAVYYCARSDVDYFDYWGQGTLVTVSS
VL: DIVLTQSPDSLAVSLGERATINCRASQDVSTSTYSYMHWYQQKPGQPPKLLIKYASYLESGVPDRFSGSGSGTDFTLTISSLQAEDVAVYYCEHSWEIPLTFGQGTKLEIK
Regarding B6, in the experiment with human CD33 [1], the “Fold affinity improvement” value was 10.1 fold and the dissociation constant Kd is 0.271 nM. In experiment [2], the “Maximal Downregulation (% CD33 remaining)” value came out at 20.1% and the “Receptor downregulation (EC50)” value came to 0.0407 nM. In the experiment with human CD33 [8], this molecule returned a koff of 0.0002 s⁻¹ and a kon of 738000 M⁻¹ s⁻¹.

B7: AB-63.14 (antibody, V domains shown)
VH: QVQLVQSGAEVKKPGSSVKVSCKASGYTFTDYNLHWVRQAPGQGLEWIGFIYPSNGITGYAQKFQGRVTMTVDTSTSTVYMELSSLRSEDTAVYYCARSDVDYFDYWGQGTLVTVSS
VL: DIVLTQSPDSLAVSLGERATIDCKASQDVSTSTYSYMHWYQQKPGQPPKLLIKYASNLESGVPDRFSGSGSGTDFTLTISSLQAEDVAVYYCQHSWEIPLTFGQGTKLEIK
On to B7, for which, in the experiment with human CD33 [1], the “Fold affinity improvement” value was 11.2 fold and the Kd stood at 0.244 nM. For the same molecule, in [2], the “Maximal Downregulation (% CD33 remaining)” value is 25.3% and the “Receptor downregulation (EC50)” value was found to be 0.0519 nM. For the same molecule, in the experiment with human CD33 [9], the koff was found to be 0.0002 s⁻¹ and the kon stood at 819000 M⁻¹ s⁻¹.

B8: AB-63.13 (antibody, V domains shown)
VH: QVQLVQSGAEVKKPGASVKVSCKASGYTFTDYNLHWVRQAPGQGLEWIGFIYPSNGIRGYAQKFQGRVTMTVDTSTSTVYMELSSLRSEDTAVYYCARSDVDYFDYWGQGTLVTVSS
VL: DIVLTQSPDSLAVSLGERATINCRASQSVSTSTYSYMHWYQQKPGQPPKLLIKYASNLESGVPDRFSGSGSGTDFTLTISSLQAEDVAVYYCQHSEEIPLTFGQGTKLEIK
On to B8, for which, in the experiment with human CD33 [1], the “Fold affinity improvement” value amounted to 12.1 fold and the Kd came to 0.225 nM. In experiment [2], the “Maximal Downregulation (% CD33 remaining)” value amounted to 25.5% and the “Receptor downregulation (EC50)” value amounted to 0.0448 nM. In the experiment with human CD33 [10], this molecule returned a koff of 0.00023 s⁻¹ and a kon of 1.02e+06 M⁻¹ s⁻¹.

B9: AB-63.15 (antibody, V domains shown)
VH: QVQLVQSGAEVKKPGASVKVSCKASGYTFTDYNYHWVRQAPGQGLEWIGFIYPSNGITGYAQKFQGRVTMTVDTSTSTVYMELSSLRSEDTAVYYCARSDVDYFDLWGQGTLVTVSS
VL: DIVLTQSPDSLAVSLGERATINCRASQDVSTSTYSYMHWYQQKPGQPPKLLIKYASNVESGVPDRFSGSGSGTDFTLTISSLQAEDVAVYYCQHSWEIPLTFGQGTKLEIE
Regarding B9, in the experiment with human CD33 [1], the “Fold affinity improvement” value came out at 12.1 fold and the Kd amounted to 0.225 nM. In experiment [2], the “Maximal Downregulation (% CD33 remaining)” value came to 27.5% and the “Receptor downregulation (EC50)” value stood at 0.0476 nM. In the experiment with human CD33 [11], this molecule came in with a koff of 0.000204 s⁻¹ and a kon of 903000 M⁻¹ s⁻¹.

In general, Kd refers to the free concentration of one partner at which half of the binding sites on the other are occupied at equilibrium, for simple one-to-one binding. Read a low Kd as tighter binding. The term koff denotes the rate constant with which the complex falls apart. Broadly, the kon is a measure of how fast the partners come together.
